Source: FireProtDB
Where “and” joins values, the source holds several entries; their conditions need not be identical. Equal values may be shown once.

Conditions: whole UniProt chain shown
[1] = Escherichia coli (strain K12), pH 7.4, Thermal, DSC, phosphate 5 mM, reversible: yes
[2] = Escherichia coli (strain K12), pH 8.3, Thermal, DSC, borate 40 mM
[3] = Escherichia coli, pH 6, 19 °C, GdnHCl, CD, sodium phosphate 10 mM, sodium sulphate 10 mM, reversible: yes
[4] = Escherichia coli, pH 6, 25 °C, GdnHCl, CD, sodium phosphate 10 mM, sodium sulphate 10 mM, reversible: yes
[5] = Escherichia coli, pH 6, 25 °C, Thermal, DSC, Sodium phosphate 10 mM, Na2SO4 10 mM, reversible: yes
[6] = Escherichia coli, pH 6, Thermal, DSC, Sodium phosphate 10 mM, Na2SO4 10 mM, reversible: yes
[7] = Escherichia phage lambda, pH 5.6, 37 °C, Urea, CD, Acetic acid(deuterated) 10 mM, NaCl 100 mM, reversible: yes
[8] = Escherichia phage lambda, pH 6.6, 20 °C, GdnHCl, CD, Potassium phosphate 50 mM, KCl 100 mM, reversible: yes
[9] = Escherichia phage lambda, pH 7, 5 °C, GdnHCl, CD, Potassium phosphate 50 mM, KCl 100 mM, reversible: yes (70-100%)
[10] = Escherichia phage lambda, pH 7, 25 °C, GdnHCl, CD, Potassium phosphate 50 mM, KCl 100 mM, reversible: yes (70-100%)
[11] = Escherichia phage lambda, pH 7, Thermal, DSC, Bis-Tris 10 mM, KCl 200 mM, reversible: yes (88%)
[12] = Escherichia phage lambda, pH 7, Thermal, DSC, Bis-Tris 10 mM, KCl 200 mM, reversible: yes
[13] = Escherichia phage lambda, pH 8, Thermal, CD, KD2PO4 20 mM, NaCl 100 mM, reversible: yes (>90%)
[14] = Escherichia phage lambda, pH 8, Thermal, DSC, Potassium phosphate 10 mM, KCl 200 mM, reversible: no
[15] = Escherichia phage lambda, pH 8, Thermal, DSC, Potassium phosphate 10 mM, KCl 200 mM, reversible: yes (95%)
[16] = Gallus gallus, pH 7, 25 °C, GdnHCl, Fluorescence, Phosphate 10 mM, NaCl 50 mM
[17] = Hirudo medicinalis, pH 5.4, 25 °C, GdnHCl, CD, KH2PO4-NaOH 10 mM, reversible: yes
[18] = Homo sapiens, pH 2.2, 25 °C, GdnHCl, CD, Sodium cacodylate 50 mM, NaCl 50 mM
[19] = Homo sapiens, pH 8, 25 °C, GdnHCl, CD, Tris-HCl 20 mM

B1: PTS system mannose-specific EIIAB component wild type, P69797 (protein)
chain: MTIAIVIGTHGWAAEQLLKTAEMLLGEQENVGWIDFVPGENAETLIEKYNAQLAKLDTTKGVLFLVDTWGGSPFNAASRIVVDKEHYEVIAGVNIPMLVETLMARDDDPSFDELVALAVETGREGVKALKAKPVEKAAPAPAAAAPKAAPTPAKPMGPNDYMVIGLARIDDRLIHGQVATRWTKETNVSRIIVVSDEVAADTVRKTLLTQVAPPGVTAHVVDVAKMIRVYNNPKYAGERVMLLFTNPTDVERLVEGGVKITSVNVGGMAFRQGKTQVNNAVSVDEKDIEAFKKLNARGIELEVRKVSTDPKLKMMDLISKIDK
Escherichia coli (strain K12), pH 7.4, 22 °C, GdnHCl, CD, Sodium phosphate 20 mM, reversible: yes
  unfolding free energy: 6.5 kcal/mol
Escherichia coli (strain K12), pH 7.4, Thermal, CD, Sodium phosphate 20 mM, reversible: yes
  unfolding enthalpy (van 't Hoff): 135 kcal/mol

B2: Lactose operon repressor wild type, P03023 (protein)
chain: MKPVTLYDVAEYAGVSYQTVSRVVNQASHVSAKTREKVEAAMAELNYIPNRVAQQLAGKQSLLIGVATSSLALHAPSQIVAAIKSRADQLGASVVVSMVERSGVEACKAAVHNLLAQRVSGLIINYPLDDQDAIAVEAACTNVPALFLDVSDQTPINSIIFSHEDGTRLGVEHLVALGHQQIALLAGPLSSVSARLRLAGWHKYLTRNQIQPIAEREGDWSAMSGFQQTMQMLNEGIVPTAMLVANDQMALGAMRAITESGLRVGADISVVGYDDTEDSSCYIPPLTTIKQDFRLLGQTSVDRLLQLSQGQAVKGNQLLPVSLVKRKTTLAPNTQTASPRALADSLMQLARQVSRLESGQ
Escherichia coli (strain K12), pH 7.4, Thermal, CD, phosphate 5 mM, reversible: no
  Tm: 53 °C

B3: L-arabinose-binding periplasmic protein wild type, P02924 (protein)
chain: MHKFTKALAAIGLAAVMSQSAMAENLKLGFLVKQPEEPWFQTEWKFADKAGKDLGFEVIKIAVPDGEKTLNAIDSLAASGAKGFVICTPDPKLGSAIVAKARGYDMKVIAVDDQFVNAKGKPMDTVPLVMMAATKIGERQGQELYKEMQKRGWDVKESAVMAITANELDTARRRTTGSMDALKAAGFPEKQIYQVPTKSNDIPGAFDAANSMLVQHPEVKHWLIVGMNDSTVLGGVRATEGQGFKAADIIGIGINGVDAVSELSKAQATGFYGSLLPSPDVHGYKSSEMLYNWVAKDVEPPKFTEVTDVVLITRDNFKEELEKKGLGGK
[1]
  Tm: 53.6 °C
  heat capacity change of unfolding: 3.16 kcal/mol/K
  unfolding enthalpy (calorimetric): 152 kcal/mol

B4: Peptidyl-prolyl cis-trans isomerase B wild type, P23869 (protein)
chain: MVTFHTNHGDIVIKTFDDKAPETVKNFLDYCREGFYNNTIFHRVINGFMIQGGGFEPGMKQKATKEPIKNEANNGLKNTRGTLAMARTQAPHSATAQFFINVVDNDFLNFSGESLQGWGYCVFAEVVDGMDVVDKIKGVATGRSGMHQDVPKEDVIIESVTVSE
Escherichia coli (strain K12), pH 8, 15 °C, NaCl, Fluorescence, Tris-HCl 0.1 M, NaCl 2.0 M, reversible: yes
  unfolding free energy: 2.51 kcal/mol

B5: Ornithine carbamoyltransferase subunit I wild type, P04391 (protein)
chain: MSGFYHKHFLKLLDFTPAELNSLLQLAAKLKADKKSGKEEAKLTGKNIALIFEKDSTRTRCSFEVAAYDQGARVTYLGPSGSQIGHKESIKDTARVLGRMYDGIQYRGYGQEIVETLAEYASVPVWNGLTNEFHPTQLLADLLTMQEHLPGKAFNEMTLVYAGDARNNMGNSMLEAAALTGLDLRLVAPQACWPEAALVTECRALAQQNGGNITLTEDVAKGVEGADFIYTDVWVSMGEAKEKWAERIALLREYQVNSKMMQLTGNPEVKFLHCLPAFHDDQTTLGKKMAEEFGLHGGMEVTDEVFESAASIVFDQAENRMHTIKAVMVATLSK
[2]
  Tm: 62.5 °C
  unfolding enthalpy (calorimetric): 600 kcal/mol

B6: Regulatory protein rop wild type, P03051 (protein)
chain: MTKQEKTALNMARFIRSQTLTLLEKLNELDADEQADICESLHDHADELYRSCLARFGDDGENL
[3]
  denaturant m value: 2.75 kcal/mol/M
  denaturant midpoint (higher = more stable): 3.3 M
  unfolding free energy: 16 kcal/mol
[4]
  denaturant m value: 3.06 kcal/mol/M
  denaturant midpoint (higher = more stable): 3.23 M
  unfolding free energy: 16.9 kcal/mol
[5]
  heat capacity change of unfolding: 2.46 kcal/mol/K
  unfolding free energy: 17.1 kcal/mol
[6]
  Tm: 71 °C
  heat capacity change of unfolding: 2.46 kcal/mol/K
  unfolding enthalpy (calorimetric): 139 kcal/mol
  unfolding enthalpy (van 't Hoff): 130 kcal/mol
Escherichia coli, pH 7, Thermal, CD, Sodium phosphate 100 mM, NaCl 200 mM
  Tm: 64 °C

B7: Tetracycline repressor protein class D wild type, P0ACT4 (protein)
chain: MARLNRESVIDAALELLNETGIDGLTTRKLAQKLGIEQPTLYWHVKNKRALLDALAVEILARHHDYSLPAAGESWQSFLRNNAMSFRRALLRYRDGAKVHLGTRPDEKQYDTVETQLRFMTENGFSLRDGLYAISAVSHFTLGAVLEQQEHTAALTDRPAAPDENLPPLLREALQIMDSDDGEQAFLHGLESLIRGFEVQLTALLQIVGGDKLIIPFC
Escherichia coli, pH 7.5, 22 °C, Urea, CD, Tris-HCl 50 mM, NaCl 150 mM, reversible: yes(96%)
  denaturant midpoint (higher = more stable): 4.7 M

B8: Regulatory protein cro wild type, P03040 (protein)
chain: MEQRITLKDYAMRFGQTKTAKDLGVYQSAINKAIHAGRKIFLTINADGSVYAEEVKPFPSNKKTTA
Escherichia phage lambda, pH 3, Thermal, CD, Potassium phosphate 10 mM, KCl 0.1 M, reversible: yes
  Tm: 40 °C
Escherichia phage lambda, pH 7, Thermal, CD, Potassium phosphate 10 mM, KCl 0.1 M, reversible: yes
  Tm: 39.5 °C

B9: Repressor protein cI wild type, P03034 (protein)
chain: MSTKKKPLTQEQLEDARRLKAIYEKKKNELGLSQESVADKMGMGQSGVGALFNGINALNAYNAALLAKILKVSVEEFSPSIAREIYEMYEAVSMQPSLRSEYEYPVFSHVQAGMFSPELRTFTKGDAERWVSTTKKASDSAFWLEVEGNSMTAPTGSKPSFPDGMLILVDPEQAVEPGDFCIARLGGDEFTFKKLIRDSGQVFLQPLNPQYPMIPCNESCSVVGKVIASQWPEETFG
[7]
  denaturant m value: 1.23 kcal/mol/M
  unfolding free energy: 3.27 kcal/mol
[8]
  denaturant m value: 2.3 kcal/mol/M
  unfolding free energy: 5.2 kcal/mol
[9]
  denaturant m value: 2.5 kcal/mol/M
  denaturant midpoint (higher = more stable): 2.52 M
  unfolding free energy: 6 kcal/mol
[10]
  denaturant m value: 2.4 kcal/mol/M
  denaturant midpoint (higher = more stable): 2.03 M
  unfolding free energy: 4.8 kcal/mol
Escherichia phage lambda, pH 7, 25 °C, Urea, CD, Sodium phosphate 20 mM, NaCl 100 mM, reversible: Yes
  unfolding free energy: 2.4 kcal/mol
Escherichia phage lambda, pH 7, Thermal, CD, Potassium phosphate 10 mM, KCl 100 mM
  Tm: 54 °C
Escherichia phage lambda, pH 7, Thermal, CD, Potassium phosphate 50 mM, KCl 100 mM, reversible: yes (60-75%)
  Tm: 55 °C
Escherichia phage lambda, pH 7, Thermal, CD, Potassium phosphate 50 mM, KCl 100 mM, reversible: yes (70-100%)
  Tm: 55.7 °C
Escherichia phage lambda, pH 7, Thermal, CD, Potassium phosphate 50 mM, KCl 100 mM
  Tm: 57 °C
[11]
  Tm: 73.3 °C
  unfolding enthalpy (calorimetric): 82.4 kcal/mol
  unfolding enthalpy (van 't Hoff): 348 kcal/mol
[12]
  Tm: 50.7 °C
  unfolding enthalpy (calorimetric): 50.9 kcal/mol
  unfolding enthalpy (van 't Hoff): 332 kcal/mol
Escherichia phage lambda, pH 7.5, 22 °C, Urea, CD, Potassium phosphate 10 mM, KCl 50 mM
  unfolding free energy: 0 kcal/mol
Escherichia phage lambda, pH 7.5, Thermal, CD, Potassium phosphate 10 mM, KCl 50 mM
  Tm: 49 °C
Escherichia phage lambda, pH 8, 13 °C, Urea, CD, KD2PO4 20 mM, NaCl 100 mM, reversible: yes (>90%)
  unfolding free energy: 4.6 kcal/mol
Escherichia phage lambda, pH 8, 25 °C, Urea, CD, KD2PO4 20 mM, NaCl 100 mM, reversible: yes (>90%)
  unfolding free energy: 4.3 kcal/mol
Escherichia phage lambda, pH 8, 25 °C, Urea, Fluorescence, Potassium phosphate 0.1 M, reversible: yes
  unfolding free energy: 2.09 kcal/mol and 1 kcal/mol
Escherichia phage lambda, pH 8, 37 °C, Urea, CD, Potassium phosphate 4 mM, NaCl 20 mM
  unfolding free energy: 0.86 kcal/mol
[13]
  Tm: 57.2 °C
  unfolding enthalpy (van 't Hoff): 68 kcal/mol
[14]
  Tm: 53.4 °C and 51.5 °C
  unfolding enthalpy (calorimetric): 65.5 kcal/mol and 65 kcal/mol
  unfolding enthalpy (van 't Hoff): 69.3 kcal/mol
[15]
  Tm: 53.9 °C
  unfolding enthalpy (calorimetric): 53.4 kcal/mol
  unfolding enthalpy (van 't Hoff): 79.8 kcal/mol

B10: Ovalbumin wild type, P01012 (protein)
chain: MGSIGAASMEFCFDVFKELKVHHANENIFYCPIAIMSALAMVYLGAKDSTRTQINKVVRFDKLPGFGDSIEAQCGTSVNVHSSLRDILNQITKPNDVYSFSLASRLYAEERYPILPEYLQCVKELYRGGLEPINFQTAADQARELINSWVESQTNGIIRNVLQPSSVDSQTAMVLVNAIVFKGLWEKAFKDEDTQAMPFRVTEQESKPVQMMYQIGLFRVASMASEKMKILELPFASGTMSMLVLLPDEVSGLEQLESIINFEKLTEWTSSNVMEERKIKVYLPRMKMEEKYNLTSVLMAMGITDVFSSSANLSGISSAESLKISQAVHAAHAEINEAGREVVGSAEAGVDAASVSEEFRADHPFLFCIKHIATNAVLFFGRCVSP
Gallus gallus, pH 6, Thermal, DSC, Na-phosphate
  Tm: 72.4 °C
Gallus gallus, pH 7, Thermal, DSC, Phosphate, transition: 3, reversible: No
  Tm: 82.5 °C
Gallus gallus, pH 7, Thermal, DSC, Unknown, transition: 3, reversible: No
  Tm: 78.4 °C

B11: Riboflavin-binding protein wild type, P02752 (protein)
chain: MLRFAITLFAVITSSTCQQYGCLEGDTHKANPSPEPNMHECTLYSESSCCYANFTEQLAHSPIIKVSNSYWNRCGQLSKSCEDFTKKIECFYRCSPHAARWIDPRYTAAIQSVPLCQSFCDDWYEACKDDSICAHNWLTDWERDESGENHCKSKCVPYSEMYANGTDMCQSMWGESFKVSESSCLCLQMNKKDMVAIKHLLSESSEESSSMSSSEEHACQKKLLKFEALQQEEGEERR
[16]
  denaturant m value: 4.14 kcal/mol/M
  unfolding free energy: 2.78 kcal/mol

B12: Eglin C wild type, P01051 (protein)
chain: TEFGSELKSFPEVVGKTVDQAREYFTLHYPQYDVYFLPEGSPVTLDLRYNRVRVFYNPGTNVVNHVPHVG
[17]
  denaturant m value: 3.87 kcal/mol/M
  unfolding free energy: 6.5 kcal/mol

B13: Alpha-lactalbumin wild type, P00709 (protein)
chain: MRFFVPLFLVGILFPAILAKQFTKCELSQLLKDIDGYGGIALPELICTMFHTSGYDTQAIVENNESTEYGLFQISNKLWCKSSQVPQSRNICDISCDKFLDDDITDDIMCAKKILDIKGIDYWLAHKALCTEKLEQWLCEKL
[18]
  denaturant m value: 0.95 kcal/mol/M
  denaturant midpoint (higher = more stable): 4.67 M
  unfolding free energy: 4.45 kcal/mol
Homo sapiens, pH 7, Thermal, CD, Sodium cacodylate 50 mM, NaCl 50 mM, reversible: yes
  heat capacity change of unfolding: 1.1 kcal/mol/K
Homo sapiens, pH 7.3, 25 °C, GdnHCl, CD, Tris-HCl 0.05 M, reversible: yes
  unfolding free energy: 6.8 kcal/mol
[19]
  denaturant m value: 0.85 kcal/mol/M
  denaturant midpoint (higher = more stable): 3.09 M
  unfolding free energy: 2.63 kcal/mol
